Reference: article PMC10400651, “Gain-of-function mutant p53 together with ERG proto-oncogene drive prostate cancer by beta-catenin activation and pyrimidine synthesis”

Target: p53 WT (UniProt P04637 1-393)
Assay: EMSA; Thermo EMSA kit (20148) protocol; 6% native PAGE; supershift with 1 ug anti-p53 for 1 h at room temperature; recombinant p53 eluted in PBS; buffer, salt and pH
Conditions: protein: recombinant; tags: untagged after thrombin cleavage of GST; chain copies: 4; label: biotin; blunt

p53 WT, sequence (P04637 whole entry): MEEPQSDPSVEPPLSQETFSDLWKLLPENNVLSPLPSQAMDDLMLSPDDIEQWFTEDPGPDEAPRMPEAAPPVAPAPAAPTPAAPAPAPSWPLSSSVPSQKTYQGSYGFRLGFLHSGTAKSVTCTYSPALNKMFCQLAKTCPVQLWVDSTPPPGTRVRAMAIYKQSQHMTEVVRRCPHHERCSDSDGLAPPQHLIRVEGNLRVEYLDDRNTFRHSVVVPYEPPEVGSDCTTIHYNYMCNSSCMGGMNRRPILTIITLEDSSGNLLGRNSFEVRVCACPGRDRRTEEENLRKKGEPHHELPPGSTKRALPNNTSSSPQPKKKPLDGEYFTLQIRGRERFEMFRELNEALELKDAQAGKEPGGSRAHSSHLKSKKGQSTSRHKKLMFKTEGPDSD

B1: CTNNB1-probe1 (MP53BS) (dsDNA)
DNA 1: GCCCCCTCGCGCCCCGCCCCTTGTC
DNA 2: GACAAGGGGCGGGGCGCGAGGGGGC
Does B1 bind?
Result: no binding
